No end group written: not given here.
Key:
[1] = ICV injection, food intake in 24-h fasted rats (studies 1a, 2a); format: in vivo, rat; conditions: ICV 3 nmol, vs saline
Excerpt: (§1) Animals were handled daily after recovery from surgery until completion of the studies.
(§2) Animals had permanent stainless steel guide cannulas (Plastics One, Roanoke, Va.) stereotactically implanted ICV (intracerebraventricularly) or iPVN (into the hypothalamic paraventricular nucleus).

[2] = iPVN injection, food intake in 24-h fasted rats (studies 1b, 2b); format: in vivo, rat
Description: as §1, §2
Therefore, exendin-4 was injected iPVN at a dose of 0.03 nmol.

[3] = target: T1, Arcuate nucleus GLP-1 receptors (Rattus norvegicus, UniProt P32301); test: iARC exendin 9-39 prior to IP OXM or GLP-1, 1 hour food intake; format: in vivo
T1 construct: 24-hour fasted rats received an iARC injection of saline or exendin9-39 (5 nmoles); from tissue; host or cells: live rat, hypothalamic arcuate nucleus
T1 sequence (P32301 22-463): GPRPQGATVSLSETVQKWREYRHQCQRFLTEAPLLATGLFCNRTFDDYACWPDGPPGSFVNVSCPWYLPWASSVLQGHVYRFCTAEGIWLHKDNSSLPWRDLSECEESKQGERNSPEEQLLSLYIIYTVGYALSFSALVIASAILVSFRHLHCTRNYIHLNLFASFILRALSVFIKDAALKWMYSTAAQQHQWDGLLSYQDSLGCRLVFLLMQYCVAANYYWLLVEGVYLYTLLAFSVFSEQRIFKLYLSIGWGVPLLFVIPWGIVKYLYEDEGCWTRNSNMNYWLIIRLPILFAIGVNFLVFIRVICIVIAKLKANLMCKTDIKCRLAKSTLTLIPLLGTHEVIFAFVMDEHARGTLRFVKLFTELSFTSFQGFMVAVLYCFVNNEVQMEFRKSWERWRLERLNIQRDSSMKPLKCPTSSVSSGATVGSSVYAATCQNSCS
Excerpt: Rats cannulated into the arcuate nucleus were randomised into 6 groups (n=10-12 per group). […] The injection details are described in Table 1 below.

GLP-1 receptor = target: T2, GLP-1 receptor (Rattus norvegicus, UniProt P32301); test: Coadministration of exendin-(9-39) with GLP-1 or OXM, ICV and iPVN, food intake (study 4); format: in vivo
T2 construct: from tissue; host or cells: rat hypothalamus (membrane preparation)
T2 sequence (P32301 22-463): T1 sequence (P32301 22-463)

[4] = system: fos-like immunoreactivity; test: Fos-like immunoreactivity (FLI) immunohistochemistry in hypothalamus and brainstem after IP injection; format: in vivo, rat; conditions: IP 15 nmol/kg, 90 minutes
Description: The brains were removed and post-fixed overnight in PBF and then transferred to PB-sucrose (20% w/v) overnight. 40 μm coronal sections of brain and brainstem were cut on a freezing microtome and stained for fos-like immunoreactivity (FLI) by the avitin-biotin-peroxidase method. The sections were then mounted on poly-L-lysine-coated slides, dehydrated in increasing concentrations of ethanol (50-100%), delipidated in xylene and coverslipped using DPX mountant. Slides were examined for FLI-positive nuclei using a light microscope (Nikon Eclipse E-800) and images captured using a microimager (Xillix MicroImager). The numbers of FLI-positive nuclei in the hypothalamus and brainstem were counted by an independent member of the research team who was blinded to the experimental groups. The average number of FLI-positive nuclei per section was calculated and expressed as an integer for each animal.

## glucagon
[1]
  food intake (refeeding) after ICV injection: failed to affect food intake at any time point
[2]; iPVN 1 nmol, any time point
  food intake after iPVN injection: failed to affect food intake at any time point

## exendin-(9-39)
[3]; exendin 9-39 into the ARC, dose printed 300 nmol/kg, IP OXM 30 nmol/kg
  effect on anorexia caused by IP administration of OXM: blocked
[3]; iARC exendin 9-39 (5 nmoles) or saline 15 minutes prior to IP OXM (30 nmol/kg), GLP-1 (30 nmol/kg) or saline
  Food intake (g), 1 hour: 9.0 g
[3]; prior iARC exendin 9-39, IP GLP-1 30 nmol/kg
  effect on inhibition of food intake by IP GLP-1: not affected
GLP-1 receptor; ICV, exendin-(9-39) 30 nmol with GLP-1 3 nmol, ratio 10:1
  effect of coadministration on anorectic effects of GLP-1: blocked the anorectic effects of GLP-1
GLP-1 receptor; ICV, exendin-(9-39) 30 nmol with OXM 3 nmol
  effect of coadministration on anorectic effect of OXM: attenuation of the anorectic effect of OXM
GLP-1 receptor; iPVN, exendin-(9-39) 10 nmol with GLP-1 1 nmol
  effect of coinjection on anorectic effects of GLP-1: blocked
GLP-1 receptor; iPVN, exendin-(9-39) 10 nmol with OXM 1 nmol
  effect of coinjection on anorectic effects of OXM: blocked

## CCK: positive control for gastric emptying at the two-hour time-point (DYMGWMDF; ends and bridges not checked; UniProt P06307 96-103, looked up)
[4]
  FLI staining in the brainstem (NTS, area postrema): caused dense staining of FLI

## exendin-4
[2]; iPVN 0.03 nmol
  food intake (refeeding) after iPVN injection: inhibited reseeding

Reference: patent US7825091B2, “Modification of feeding behaviour” (Imperial Innovations Limited, priority 2003, dated 2010)
